Measured values from article PMC3162478 (Nature, 2011).

Key:
FimH adhesin = FimH adhesin (Escherichia coli, UniProt P08191 22-300); experiment: AUC
[1] = target: T1, FimD usher, full-length (undigested), with C-terminal Strep-tag II (Escherichia coli, UniProt P30130 46-878); experiment: AUC
T1 sequence: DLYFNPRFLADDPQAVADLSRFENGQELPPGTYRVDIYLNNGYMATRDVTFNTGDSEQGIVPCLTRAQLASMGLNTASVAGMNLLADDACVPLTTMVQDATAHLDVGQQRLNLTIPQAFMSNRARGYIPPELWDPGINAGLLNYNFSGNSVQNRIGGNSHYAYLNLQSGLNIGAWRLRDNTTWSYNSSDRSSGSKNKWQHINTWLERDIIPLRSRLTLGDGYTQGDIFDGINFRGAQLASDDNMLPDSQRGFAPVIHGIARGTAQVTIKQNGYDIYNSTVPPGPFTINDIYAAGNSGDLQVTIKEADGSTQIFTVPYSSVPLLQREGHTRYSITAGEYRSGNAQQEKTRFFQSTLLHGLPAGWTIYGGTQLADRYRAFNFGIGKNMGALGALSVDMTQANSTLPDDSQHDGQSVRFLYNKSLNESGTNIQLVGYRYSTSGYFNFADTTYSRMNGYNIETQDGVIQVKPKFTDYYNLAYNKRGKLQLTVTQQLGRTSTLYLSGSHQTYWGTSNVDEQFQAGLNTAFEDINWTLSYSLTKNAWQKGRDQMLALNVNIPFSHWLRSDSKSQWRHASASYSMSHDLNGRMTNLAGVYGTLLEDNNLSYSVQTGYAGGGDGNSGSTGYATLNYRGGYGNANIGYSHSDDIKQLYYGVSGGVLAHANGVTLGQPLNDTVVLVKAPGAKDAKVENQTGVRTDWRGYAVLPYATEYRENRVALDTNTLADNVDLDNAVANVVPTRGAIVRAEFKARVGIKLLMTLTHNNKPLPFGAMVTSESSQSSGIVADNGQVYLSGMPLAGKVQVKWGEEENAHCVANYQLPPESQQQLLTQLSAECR

Chain of FimH adhesin (P08191 22-300): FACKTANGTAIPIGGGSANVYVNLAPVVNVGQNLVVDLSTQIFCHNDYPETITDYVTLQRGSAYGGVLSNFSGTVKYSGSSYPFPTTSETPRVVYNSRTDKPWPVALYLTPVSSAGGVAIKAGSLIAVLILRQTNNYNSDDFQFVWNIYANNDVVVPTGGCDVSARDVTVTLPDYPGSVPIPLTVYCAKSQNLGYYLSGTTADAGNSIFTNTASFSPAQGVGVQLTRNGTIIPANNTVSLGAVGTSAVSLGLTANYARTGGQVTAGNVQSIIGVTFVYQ

B1: FimC chaperone (His-tagged, from pETS1001 fimCHisH) (natural protein)
chain: GVALGATRVIYPAGQKQEQLAVTNNDENSTYLIQSWVENADGVKDGRFIVTPPLFAMKGKKENTLRILDATNNQLPQDRESLFWMNVKAIPSMDKSKLTENTLQLAIISRIKLYYRPAKLALPPDQAAEKLRFRRSANSLTLINPTPYYLTVTELNAGTRVLENALVPPMGESTVKLPSDAGSNITYRTINDYGALTPKMTGVME
FimH adhesin
  stoichiometry N: 1
[1]
  stoichiometry N: 1
